Source: article PMC5993831 (2018)

Biological target: PD-L1 (Mus musculus, UniProt Q9EP73)
Sequence (Q9EP73 19-239): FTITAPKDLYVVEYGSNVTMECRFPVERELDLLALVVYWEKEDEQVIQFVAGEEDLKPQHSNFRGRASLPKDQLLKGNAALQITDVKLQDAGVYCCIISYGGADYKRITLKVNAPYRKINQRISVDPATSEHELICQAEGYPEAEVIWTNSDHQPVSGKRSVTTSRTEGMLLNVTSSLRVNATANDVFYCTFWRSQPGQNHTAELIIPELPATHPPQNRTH

B1: PD-L1 trap (trimeric PD-1 ECD fused to CMP1 trimerization domain) 21-150 (protein)
chain: SGWLLEVPNGPWRSLTFYPAWLTVSEGANATFTCSLSNWSEDLMLNWNRLSPSNQTEKQAAFCNGLSQPVQDARFQIIQLPNRHDFHMNILDTRRNDSGIYLCGAISLHPKAKIEESPGAELVVTERILE
modifications: trimeric fusion with mouse CMP1 residues 458-500 via hinge linker, His6 tag
Kd: 0.219 nM
